Where two headings read alike, the source gives them in different places.
Legend:
[1] = biological target: T1, SARS-CoV RBD (Sino Biological) (SARS-CoV, UniProt P59594 306-527); assay: ELISA
[2] = biological target: T2, SARS-CoV-2 RBD-mouse Fc (Sino Biological) (SARS-CoV-2, UniProt P0DTC2 331-541)
SARS-CoV-2 Spike protein [3] = biological target: T3, SARS-CoV-2 Spike protein (SARS-CoV-2 Wuhan-Hu-1, UniProt P0DTC2 14-1273); assay: cell-based or functional assay
[4] = biological target: T2, SARS-CoV-2 RBD-mouse Fc (Sino …); remark: listed apart in the source
SARS-CoV-2 Spike protein [5] = biological target: T3, SARS-CoV-2 Spike protein; assay: cell-based or functional assay; remark: listed apart in the source
[6] = biological target: T4, SARS-CoV-2 RBD (residues 331-550 of spike from BetaCoV/Wuhan-Hu-1/2019, accession number MN908947) (SARS-CoV-2 Wuhan-Hu-1, UniProt P0DTC2 331-550); assay: BLI
[7] = biological target: T1, SARS-CoV RBD (Sino Biological); assay: BLI
[8] = biological target: T4, SARS-CoV-2 RBD (residues 331-550 of …); assay: ELISA
[9] = biological target: T1, SARS-CoV RBD (Sino Biological); assay: ELISA; remark: listed apart in the source
SARS-CoV-2 Spike protein [10] = biological target: T3, SARS-CoV-2 Spike protein; assay: cell-based or functional assay; remark: listed apart in the source
SARS-CoV Spike protein = SARS-CoV Spike protein (SARS-CoV, UniProt P59594 14-1255); assay: cell-based or functional assay
[11] = biological target: T1, SARS-CoV RBD (Sino Biological)
[12] = biological target: T4, SARS-CoV-2 RBD (residues 331-550 of …)
[13] = biological target: T2, SARS-CoV-2 RBD-mouse Fc (Sino …); remark: listed apart in the source
SARS-CoV-2 Spike protein [14] = biological target: T3, SARS-CoV-2 Spike protein; assay: cell-based or functional assay; remark: listed apart in the source
SARS-CoV-2 Spike protein [15] = biological target: T3, SARS-CoV-2 Spike protein; assay: cell-based or functional assay; remark: listed apart in the source
[16] = biological target: T2, SARS-CoV-2 RBD-mouse Fc (Sino …); remark: listed apart in the source
[17] = biological target: T4, SARS-CoV-2 RBD (residues 331-550 of …); assay: BLI (Octet): antibody on Protein A pins, SARS-CoV-2 RBD at 6, 1.5 and 0.4 µg/ml
[18] = biological target: T4, SARS-CoV-2 RBD (residues 331-550 of …); assay: as above; remark: listed apart in the source
SARS-CoV-2 Spike protein [19] = biological target: T3, SARS-CoV-2 Spike protein
SARS-CoV-2 Spike protein [20] = biological target: T3, SARS-CoV-2 Spike protein; remark: listed apart in the source

B1: S2D8 (antibody, V domains shown)
VH: EVQLLESGGGLVQPGGSLRLSCAASGFTFTTYAMSWVRQAPGKGLEWVSGISGSGGNTYHADSVKGRFTISRDNSKSTLYLQMNSLRAEDTAVYYCAKDLWFREILHGMDVWGEGTTVTVSS
VL: QSALTQPASVSGSPGQSITISCTGTSSDIGGYNYVSWYQHHPGKAPKIMIYEVTNRPSGVSNRFSGSKSGNTASLTISGLQAEDEADYYCSSYTSSNTYVFGTGTKVTVL
B1 was tested, and the binding result [1] was “no binding”, the “IC50 (read off the curve)” value [2] was ~0.03 µg/mL and the “neutralization IC50” value (SARS-CoV-2 Spike protein [3]) was 0.03 µg/mL. The “neutralization IC80” value (SARS-CoV-2 Spike protein [3]) was 0.058 µg/mL, the “neutralization IC90” value (SARS-CoV-2 Spike protein [3]) was 0.087 µg/mL and the “neutralization IC95” value (SARS-CoV-2 Spike protein [3]) was 0.125 µg/mL.

B2: S2D25 (antibody, V domains shown)
VH: EVQLVESGGGLVQPGGSLRLSCAASGFPFNIYAMSWVRQAPGKGLEWVSGISGSGGSTYYADSVRGRFAISRDNSKNTLYLQMNSLRAEDTAEYYCAKDLWFREILHGMDVWGKGTTVTVSS
VL: QSALTQPASVSGSPGQSITISCTGTSSDVGGYNYVSWYQHHPGRAPKLMIYEVSNRPSGVSNRFSGSKSGNTASLSISGLQAEDEADYYCSSYTSSSTYVFGAGTKVTVL
With B2 the binding result [1] was “no binding”, the “IC50 (read off the curve)” value [4] was ~0.03 µg/mL and the “neutralization IC50” value (SARS-CoV-2 Spike protein [3]) was 0.04 µg/mL. For the same binder, the “neutralization IC80” value (SARS-CoV-2 Spike protein [3]) was 0.091 µg/mL, the “neutralization IC90” value (SARS-CoV-2 Spike protein [3]) was 0.146 µg/mL and the “neutralization IC95” value (SARS-CoV-2 Spike protein [3]) was 0.228 µg/mL.

B3: S2H14 (antibody, V domains shown)
VH: not shown
VL: NFMLTQPHSVSESPGKTVTISCTRSSGSIASNYVQWYQQRPGSSPTTVIYEDNQRPSGVPDRFSGSIDSSSNSASLTISGLKTEDEADYYCQSYDSSNQVFGGGTKLTVL
For B3, the “neutralization IC50” value (SARS-CoV-2 Spike protein [5]) was 0.847 µg/mL.

B4: S2D32 (antibody, V domains shown)
VH: EVQLVESGGGLVQPGRSLRLSCTSSGFTFGDYPMSWFRQAPGKGLEWVGFIRSKAYGGTTQYAASVKGRFTISRDDSKNIAYLQMNSLKTEDTAVYYCTREMWDCSGGRCYSPFFDYWGQGTLVTVSS
VL: EIVMTQSPATLSVSPGERATLSCRASQTVSSNLAWYQQKPGQAPRLLIYGASTRATGIPARFSGSGSGTEFTLTISSLQSEDFAVYYCQQYNNWRTFGQGTKLEIK
For B4, the binding result [1] was “no binding”, the “IC50 (read off the curve)” value [4] was ~0.03 µg/mL and the “neutralization IC50” value (SARS-CoV-2 Spike protein [3]) was 0.036 µg/mL. For the same binder, the “neutralization IC80” value (SARS-CoV-2 Spike protein [3]) was 0.081 µg/mL, the “neutralization IC90” value (SARS-CoV-2 Spike protein [3]) was 0.129 µg/mL and the “neutralization IC95” value (SARS-CoV-2 Spike protein [3]) was 0.2 µg/mL.

B5: S2A4 (antibody, V domains shown)
VH: EVQLVESGGGLVQPGGSLRLSCAASGFTFSSYWMNWVRQAPGKGLEWVANIKQDGSEKYYVDSVKGRFTISRDNAKNSLFLQMNSLRAEDTAVYYCARVWWLRGSFDYWGQGTLVTVSS
VL: NFMLTQPHSVSESPGKTVTISCTGSSGSIASNYVQWYQQRPGSAPTTVIYEDNQRPSGVPDRFSGSIDSSSNSASLTISGLKTEDEADYYCQSYDSSNHVVFGGGTKLTVL
B5 was tested, and the “IC50 (read off the curve)” value [2] was ~0.06 µg/mL and the “neutralization IC50” value (SARS-CoV-2 Spike protein [5]) was 3.45 µg/mL.

B6: S2H7 (antibody, V domains shown)
VH: EVQLVESGGGLVQPGGSLRLSCAASGFIVSSNYMSWVRQAPGKGLEWVSVIYSGGSTYYADSVKGRFTISRDNSKNTLYLQMNSLRAEDTSVYYCARDRQYSGSPSFDYWGQGTLVTVSS
VL: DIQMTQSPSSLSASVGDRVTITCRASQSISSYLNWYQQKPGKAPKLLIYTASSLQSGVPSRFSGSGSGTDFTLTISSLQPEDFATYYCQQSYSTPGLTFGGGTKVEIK
For B6, the “neutralization IC50” value (SARS-CoV-2 Spike protein [5]) was 0.195 µg/mL.

B7: S2D22 (antibody, V domains shown)
VH: EVHLVESGGGLVQPGGSLKLSCAASGFTFSGSAMHWVRQASGKGLEWVGRIRTKANTYATAYAASVKGRFTISRDDSKNTAYLQMNSLKTEDTAVYYCTRPAPYDFLSDYYTGEQLDYWGQGTLVTVSS
VL: QSVLTQPPSVSGAPGQRVTISCTGSSSNIGAGYDVHWYQQLPGAAPKLLIYGNSNRPSGVPDRFSGSKSGTSASLAITGLQAEDEADYYCQSYDSSLSGPEVFGTGTKVTVL
With B7 the Kd [6] was 5.21 nM, the Kd [7] was 53.5 nM and the EC50 [8] was 0.0353 µg/mL. The EC50 [9] was 0.0422 µg/mL, the “neutralization IC50” value (SARS-CoV-2 Spike protein [3]) was 0.865 µg/mL and the “neutralization IC80” value (SARS-CoV-2 Spike protein [3]) was 3.28 µg/mL. For the same binder, the “neutralization IC90” value (SARS-CoV-2 Spike protein [3]) was 7.16 µg/mL, the “neutralization IC95” value (SARS-CoV-2 Spike protein [3]) was 14.7 µg/mL and the “neutralization IC50” value (SARS-CoV-2 Spike protein [10]) was 1.03 µg/mL. For the same binder, the “neutralization IC50” value (SARS-CoV Spike protein) was 3.63 µg/mL.

B8: S2X227 (antibody, V domains shown)
VH: EVQLVQSGAEVKKPGASVKVSCKASGYTFTSYYMHWVRQAPGQGLEWMGIINPGGVSTTYAHYAQKFQGRVTMTRDTSTSTVYMELSSLRSEDTAVYYCARSIAVFWGDAFDIWGQGTMVTVSS
VL: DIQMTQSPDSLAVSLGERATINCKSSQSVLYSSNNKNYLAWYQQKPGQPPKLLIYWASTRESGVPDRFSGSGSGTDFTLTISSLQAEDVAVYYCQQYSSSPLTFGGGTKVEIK
Work on B8 yielded an EC50 [11] of 1.35 µg/mL, an EC50 [12] of 0.00109 µg/mL and an IC50 [13] of 0.0274 µg/mL. For the same binder, the “neutralization IC50” value (SARS-CoV-2 Spike protein [14]) was 0.00445 µg/mL and the “neutralization EC50 (interpolated)” value (SARS-CoV-2 Spike protein [15]) was 0.0053 µg/mL.

B9: S2X127 (antibody, V domains shown)
VH: EVQLVESGGGLIQPGGSLRLSCAASGLTVRSNYMSWVRQAPGKGLEWVSVMYSGGSTFYADSVKGRSTISRDNSKNTLYLQMNSLRAEDTAVYYCARGDIADDYHYGLDVWGQGTTVTVSS
VL: QSVLTQPPSVSGAPGQRVTISCTGSTSNIGAGYNVHWYQHFPGTSPKLLIYGNSNRPSGVPDRFSGSKSGTSASLAITGLQAEDEAAYYCQSYDSNLSGVFGGGTKLTVL
For B9, the IC50 [16] was 0.0102 µg/mL and the Kd [17] was < 0.001 nM.

B10: S2X129 (antibody, V domains shown)
VH: EVQLVQSGAEVKKPGASVKVSCKASGYTFTDYFMHWVRQAPGQGLEWMGWISPNSGGTNYAQRFQGRVTMTRDTSISTTYMELSRLRSDDTAVYYCARDQAYIVLAQGSGMDVWGQGTTVTVSS
VL: DIVMTQTPSSVSASVGDRVTITCRASQGISSWLAWYQQKPGKAPKLLISAASSLQSGVPSRFSGSGSGTDFTLTISTLQPEDFATYYCQQANSFPLAFGPGTKVDIK
For B10, the IC50 [16] was 0.0214 µg/mL and the Kd [18] was 0.857 nM.

B11: S2A15 v1 (antibody, V domains shown)
VH: QVQLQESGPGLVKPSGTLSLTCAVSGGSISSSNWWSWVRQPPGKGLEWIGEIYHSGNTNYNPSLKSRVTISVDKSKNQFSLKLTSVTAADTAVYYCASRYCSSTSCPNWFDPWGQGTLVTVSS
VL: QSALTQPASVSGSPGQSITISCTGTSSDVGSYNLVSWYQQHPGKAPKFMIYEGSKRPSGVSNRFSGSKSGNTASLTISGLQAEDEADYYCCSYAGSSTWVFGGGTKLTVL
In the case of B11, the EC50 (SARS-CoV-2 Spike protein [19]) is reported as 0.656 µg/mL.

B12: S2A15 v2 (antibody, V domains shown)
VH: QITLKESGPGLVKPSGTLSLTCAVSGGSISSSNWWSWVRQPPGKGLEWIGEIYHSGNTNYNPSLKSRVTISVDKSKNQFSLKLTSVTAADTAVYYCASRYCSSTSCPNWFDPWGQGTLVTVSS
VL: QSALTQPASVSGSPGQSITISCTGTSSDVGSYNLVSWYQQHPGKAPKFMIYEGSKRPSGVSNRFSGSKSGNTASLTISGLQAEDEADYYCCSYAGSSTWVFGGGTKLTVL
Binder B12 has an EC50 (SARS-CoV-2 Spike protein [19]) of 0.335 µg/mL.

B13: S2B2 v1 (antibody, V domains shown)
VH: QVQLVESGGGVVQPGRSLRLSCAASGFTFSNFGMHWVRQAPGKGLEWVAVISYDGNNKFYADSVKGRFTISRDNSKNTLYLQMNSLRAEDTAVYYCAKPTVSFGVVIDAFDIWGQGTMVTVSS
VL: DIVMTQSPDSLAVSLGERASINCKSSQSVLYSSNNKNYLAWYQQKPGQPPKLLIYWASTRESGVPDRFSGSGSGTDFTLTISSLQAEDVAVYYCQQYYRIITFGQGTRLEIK
Binder B13 has an EC50 (SARS-CoV-2 Spike protein [20]) of 0.0107 µg/mL.

B14: S2B2 v2 (antibody, V domains shown)
VH: EVQLVESGGGVVQPGRSLRLSCAASGFTFSNFGMHWVRQAPGKGLEWVAVISYDGNNKFYADSVKGRFTISRDNSKNTLYLQMNSLRAEDTAVYYCSKPTVSFGVVIDAFDIWGQGTMVTVSS
VL: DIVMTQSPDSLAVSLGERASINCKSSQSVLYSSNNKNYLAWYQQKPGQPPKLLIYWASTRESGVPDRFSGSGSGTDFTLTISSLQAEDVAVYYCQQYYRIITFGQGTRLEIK
Binder B14 has an EC50 (SARS-CoV-2 Spike protein [20]) of 0.00812 µg/mL.

Source: patent US20240059757A1 (VIR BIOTECHNOLOGY, published 2024)
